Measured values taken from the RNAGym collection of RNA variant scans (doi:10.1101/gr.219683.116).

B1: mRNA-splicing (parent)
chain: AGUUGCUGCUGGGAGCUCCAGCACAGUGAAAUGGACAGAAGGGCAGAGCAA

Variants of: B1
Assay: exon inclusion enrichment index; higher = more inclusion; WT1 exon 5 minigene, HEK293

Point of comparison: G5A C6G U7G C9A A35C C36A, “exon inclusion enrichment index” value 0.000972. Against it:
- G5A C6G U7G C9A C24U A25C — higher, 0.0183
- G5A C6G U7G C9A C24U A25U — lower, 0.000784
- G5A C6G U7G C9A C24U A25G — higher, 0.00148
- G5A C6G U7G C9A A39U A40C — higher, 0.0022
- G5A C6G U7G C9A A39U A40U — higher, 0.00155
- G5A C6G U7G C9A A39U A40G — higher, 0.00317
- G5A C6G U7G C9A G15C C16A — higher, 0.00139
- G5A C6G U7G C9A G15C C16U — lower, 0.000839
- G5A C6G U7G C9A G15C C16G — higher, 0.004
- G5A C6G U7G C9A A31G U32C — higher, 0.00508
- G5A C6G U7G C9A A31G U32G — higher, 0.0039
- G5A C6G U7G C9A A31G U32A — higher, 0.0281
- G5A C6G U7G C9A G34C — higher, 0.000973
- G5A C6G U7G C9A G34U — lower, 0.000859
- G5A C6G U7G C9A G34A — higher, 0.00215
- G5A C6G U7G C9A G21C C22G — higher, 0.00387
- G5A C6G U7G C9A G21C C22U — higher, 0.00338
- G5A C6G U7G C9A G21C C22A — higher, 0.00656
- G5A C6G U7G C9A A45U G46A — higher, 0.00219
- G5A C6G U7G C9A A45U G46C — higher, 0.00134
- G5A C6G U7G C9A A45U G46U — lower, 0.000766
- G5A C6G U7G C9A A30U A31C — higher, 0.00225
- G5A C6G U7G C9A A30U A31G — lower, 0.000854
- G5A C6G U7G C9A A30U A31U — higher, 0.00264
- G5A C6G U7G C9A G41C G42A — higher, 0.00376
- G5A C6G U7G C9A C36G — lower, 0.000918
- G5A C6G U7G C9A C36A — higher, 0.000983
- G5A C6G U7G C9A C36U — higher, 0.00174
- G5A C6G U7G C9A A35G — higher, 0.00109
- G5A C6G U7G C9A A35U — lower, 0.000728
- G5A C6G U7G C9A A35C — higher, 0.00244
- G5A C6G U7G C9A A35G C36A — higher, 0.00181
- G5A C6G U7G C9A A35G C36U — higher, 0.00169
- G5A C6G U7G C9A A35G C36G — higher, 0.00533
- G5A C6G U7G C9A G12U G13C — higher, 0.00117
- G5A C6G U7G C9A G12U G13A — lower, 0.000517
- G5A C6G U7G C9A G12U G13U — lower, 0.000533
- G5A C6G U7G C9A C22U A23U — higher, 0.00262
- G5A C6G U7G C9A C22U A23C — lower, 0.000879
- G5A C6G U7G C9A C22U A23G — higher, 0.00203
- G5A C6G U7G C9A A47U G48U — lower, 0.000738
- G5A C6G U7G C9A A47U G48A — lower, 0.00057
- G5A C6G U7G C9A A47U G48C — lower, 0.000966
- G5A C6G U7G C9A C36A A37C — higher, 0.00188
- G5A C6G U7G C9A C36A A37U — higher, 0.00282
- G5A C6G U7G C9A C36A A37G — higher, 0.00191
- G5A C6G U7G C9A A35C C36G — higher, 0.00118
- G5A C6G U7G C9A A35C C36U — lower, 0.000826
- G5A C6G U7G C9A A47C G48U — higher, 0.00274
- G5A C6G U7G C9A A47C G48C — higher, 0.00224
- G5A C6G U7G C9A A47C G48A — higher, 0.011
- G5A C6G U7G C9A A31C U32C — higher, 0.00479
- G5A C6G U7G C9A A31C U32A — higher, 0.00457
- G5A C6G U7G C9A A31C U32G — higher, 0.00133
- G5A C6G U7G C9A G21U C22U — higher, 0.00236
- G5A C6G U7G C9A G21U C22G — lower, 0.000869
- G5A C6G U7G C9A G21U C22A — lower, 0.00074
- G5A C6G U7G C9A C18A C19A — higher, 0.0013
- G5A C6G U7G C9A C18A C19U — higher, 0.00126
- G5A C6G U7G C9A C18A C19G — higher, 0.00131
- G5A C6G U7G C9A G38A A39C — higher, 0.0024
- G5A C6G U7G C9A G38A A39U — lower, 0.00074
- G5A C6G U7G C9A G38A A39G — lower, 0.000899
- G5A C6G U7G C9A G12C — higher, 0.00529
- G5A C6G U7G C9A G12U — higher, 0.00152
- G5A C6G U7G C9A G12A — lower, 0.000801
- G5A C6G U7G C9A C16A U17A — higher, 0.00207
- G5A C6G U7G C9A C16A U17C — higher, 0.00344
- G5A C6G U7G C9A C16A U17G — higher, 0.00129
- G5A C6G U7G C9A C24G A25G — higher, 0.00108
- G5A C6G U7G C9A C24G A25U — higher, 0.00102
- G5A C6G U7G C9A C24G A25C — higher, 0.00471
- G5A C6G U7G C9A A25G G26U — higher, 0.0111
- G5A C6G U7G C9A A25G G26A — higher, 0.0192
- G5A C6G U7G C9A A25G G26C — higher, 0.0234
- G5A C6G U7G C9A A39C A40U — higher, 0.00672
- G5A C6G U7G C9A A39C A40C — higher, 0.0091
- G5A C6G U7G C9A A39C A40G — higher, 0.0112
- G5A C6G U7G C9A G38C A39C — higher, 0.00466
- G5A C6G U7G C9A G38C A39G — higher, 0.00244
- G5A C6G U7G C9A G38C A39U — lower, 0.000965
- G5A C6G U7G C9A C18G C19G — higher, 0.0012
- G5A C6G U7G C9A C18G C19U — higher, 0.00119
- G5A C6G U7G C9A C18G C19A — higher, 0.00169
- G5A C6G U7G C9A C36U A37G — higher, 0.00557
- G5A C6G U7G C9A C36U A37C — higher, 0.000996
- G5A C6G U7G C9A C36U A37U — lower, 0.00084
- G5A C6G U7G C9A A45C — higher, 0.00288
- G5A C6G U7G C9A A45U — higher, 0.00141
- G5A C6G U7G C9A A45G — higher, 0.00308
- G5A C6G U7G C9A G26U U27A — higher, 0.00104
- G5A C6G U7G C9A G26U U27G — higher, 0.00474
- G5A C6G U7G C9A G26U U27C — higher, 0.0253
- G5A C6G U7G C9A A25U G26A — higher, 0.00161
- G5A C6G U7G C9A A25U G26U — lower, 0.000854
- G5A C6G U7G C9A A25U G26C — higher, 0.00304
- G5A C6G U7G C9A A45G G46U — higher, 0.00135
- G5A C6G U7G C9A A45G G46C — higher, 0.00144
- G5A C6G U7G C9A A45G G46A — higher, 0.0107
- G5A C6G U7G C9A C19A A20U — higher, 0.00128
- G5A C6G U7G C9A C19A A20C — higher, 0.00131
- G5A C6G U7G C9A C19A A20G — higher, 0.00156
- G5A C6G U7G C9A G28U — lower, 0.000687
- G5A C6G U7G C9A G28C — higher, 0.00255
- G5A C6G U7G C9A G28A — lower, 0.000725
- G5A C6G U7G C9A G34C A35G — higher, 0.00232
- G5A C6G U7G C9A G34C A35U — higher, 0.00103
- G5A C6G U7G C9A G34C A35C — higher, 0.00219
- G5A C6G U7G C9A G28U A29C — lower, 0.000797
- G5A C6G U7G C9A G28U A29G — higher, 0.00238
- G5A C6G U7G C9A G28U A29U — lower, 0.000755
- G5A C6G U7G C9A A39G A40G — higher, 0.0132
- G5A C6G U7G C9A A39G A40C — higher, 0.00397
- G5A C6G U7G C9A A39G A40U — higher, 0.00199
- G5A C6G U7G C9A C16G U17C — higher, 0.00106
- G5A C6G U7G C9A C16G U17G — higher, 0.0104
- G5A C6G U7G C9A C16G U17A — higher, 0.00122
- G5A C6G U7G C9A C18U C19U — higher, 0.00102
- G5A C6G U7G C9A C18U C19G — higher, 0.00111
- G5A C6G U7G C9A C18U C19A — higher, 0.00106
- G5A C6G U7G C9A A37C G38A — lower, 0.00086
- G5A C6G U7G C9A A37C G38U — lower, 0.000751
- G5A C6G U7G C9A A37C G38C — higher, 0.00112
- G5A C6G U7G C9A G41A G42C — higher, 0.0072
- G5A C6G U7G C9A G41A G42A — higher, 0.0013
- G5A C6G U7G C9A G41A G42U — higher, 0.00291
- G5A C6G U7G C9A G28C A29C — higher, 0.00678
- G5A C6G U7G C9A G28C A29G — higher, 0.0115
- G5A C6G U7G C9A G28C A29U — higher, 0.00174
- G5A C6G U7G C9A A45C G46C — higher, 0.00399
- G5A C6G U7G C9A A45C G46U — higher, 0.0014
- G5A C6G U7G C9A A45C G46A — lower, 0.000901
- G5A C6G U7G C9A A47G G48A — lower, 0.000837
- G5A C6G U7G C9A A47G G48C — lower, 0.000801
- G5A C6G U7G C9A A47G G48U — lower, 0.000624
- G5A C6G U7G C9A C24A A25G — higher, 0.0011
- G5A C6G U7G C9A C24A A25U — higher, 0.00166
- G5A C6G U7G C9A C24A A25C — higher, 0.0413
- G5A C6G U7G C9A G15C — higher, 0.00583
- G5A C6G U7G C9A G15U — lower, 0.000857
- G5A C6G U7G C9A G15A — higher, 0.00165
- G5A C6G U7G C9A A29C — higher, 0.00344
- G5A C6G U7G C9A A29G — higher, 0.00111
- G5A C6G U7G C9A A29U — lower, 0.000861
- G5A C6G U7G C9A A29C A30G — higher, 0.0167
- G5A C6G U7G C9A A29C A30U — higher, 0.00149
- G5A C6G U7G C9A A29C A30C — higher, 0.00169
- G5A C6G U7G C9A A40U G41C — higher, 0.0209
- G5A C6G U7G C9A A40U G41A — lower, 0.000658
- G5A C6G U7G C9A A40U G41U — lower, 0.000481
- G5A C6G U7G C9A A29U A30C — lower, 0.000854
- G5A C6G U7G C9A A29U A30G — higher, 0.00279
- G5A C6G U7G C9A A29U A30U — lower, 0.000968
- G5A C6G U7G C9A G33C G34U — higher, 0.00222
- G5A C6G U7G C9A G33C G34A — lower, 0.000739
- G5A C6G U7G C9A G33C G34C — lower, 0.0007
- G5A C6G U7G C9A A31G — higher, 0.00766
- G5A C6G U7G C9A A31C — higher, 0.00349
- G5A C6G U7G C9A A31U — higher, 0.00278
- G5A C6G U7G C9A G38C — lower, 0.000603
- G5A C6G U7G C9A G38U — lower, 0.000717
- G5A C6G U7G C9A G38A — lower, 0.000584
- G5A C6G U7G C9A C19U — higher, 0.00126
- G5A C6G U7G C9A C19A — higher, 0.00105
- G5A C6G U7G C9A C19G — higher, 0.00133
- G5A C6G U7G C9A A23U C24G — lower, 0.000949
